Laboratory results: patent US20220106382A1

Columns and labels:
[1] = target: RLuc8β2AR (β2-adrenergic receptor fused to RLuc8, BRET donor construct); assay: BRET recruitment assay in co-transfected cells; the concentration is that of isoproterenol
[2] = target: RLuc8β2AR (β2-adrenergic receptor fused to RLuc8, BRET donor construct); assay: BRET recruitment assay, RLuc8β2AR and GFP-arrestin-3 in co-transfected cells; the concentration varied is that of isoproterenol
[3] = target: RLuc8β2AR (β2-adrenergic receptor fused to RLuc8, BRET donor construct); assay: BRET recruitment assay, RLuc8β2AR and GFP-arrestin-3 mutant in co-transfected cells, isoproterenol-induced
[4] = target: RLuc8β2AR (β2-adrenergic receptor fused to RLuc8, BRET donor construct); assay: BRET recruitment assay, RLuc8β2AR and GFP-arrestin-3 mutant in co-transfected cells; the concentration varied is that of isoproterenol
[5] = target: RLuc8β2AR (β2-adrenergic receptor fused to RLuc8, BRET donor construct); assay: BRET recruitment assay in co-transfected cells, isoproterenol-induced

GFP-arrestin-3 WT (human wild-type arrestin-3, SEQ ID NO: 1), sequence (chain): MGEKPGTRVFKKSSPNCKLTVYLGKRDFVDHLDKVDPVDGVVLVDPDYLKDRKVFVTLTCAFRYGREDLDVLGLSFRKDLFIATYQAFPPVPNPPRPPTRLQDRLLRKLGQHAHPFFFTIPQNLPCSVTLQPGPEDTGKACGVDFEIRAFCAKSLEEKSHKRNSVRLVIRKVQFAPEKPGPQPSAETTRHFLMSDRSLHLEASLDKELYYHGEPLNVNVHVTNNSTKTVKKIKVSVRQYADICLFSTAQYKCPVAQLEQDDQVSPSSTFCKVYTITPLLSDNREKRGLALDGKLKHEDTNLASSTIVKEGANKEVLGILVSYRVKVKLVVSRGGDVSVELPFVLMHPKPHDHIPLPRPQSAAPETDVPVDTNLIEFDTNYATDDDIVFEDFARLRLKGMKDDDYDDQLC

Molecule	potency as concentration of isoproterenol for half of the total recruitment of the arrestin to β2AR [1] [nM]	Potency (pEC50 of isoproterenol for recruitment of the arrestin to β2AR) [2] [pEC50]	Efficacy (Emax) in %, normalized to WT [3] [%]	Potency (pEC50 of isoproterenol for recruitment of the arrestin to β2AR) [4] [pEC50]	increase of efficacy in arrestin recruitment compared to wild-type arrestin-3 [5] [%]
GFP-arrestin-3 WT (human wild-type arrestin-3, SEQ ID NO: 1)	158	6.8			
GFP-arrestin-3 double mutant A (SEQ ID NO: 2): T299A + I386A			132	7.1	30
GFP-arrestin-3 triple mutant B (SEQ ID NO: 3): T299A + I386A + R166A (protein) MGEKPGTRVFKKSSPNCKLTVYLGKRDFVDHLDKVDPVDGVVLVDPDYLKDRKVFVTLTCAFRYGREDLDVLGLSFRKDLFIATYQAFPPVPNPPRPPTRLQDRLLRKLGQHAHPFFFTIPQNLPCSVTLQPGPEDTGKACGVDFEIRAFCAKSLEEKSHKRNSVALVIRKVQFAPEKPGPQPSAETTRHFLMSDRSLHLEASLDKELYYHGEPLNVNVHVTNNSTKTVKKIKVSVRQYADICLFSTAQYKCPVAQLEQDDQVSPSSTFCKVYTITPLLSDNREKRGLALDGKLKHEDANLASSTIVKEGANKEVLGILVSYRVKVKLVVSRGGDVSVELPFVLMHPKPHDHIPLPRPQSAAPETDVPVDTNLIEFDTNYATDDDAVFEDFARLRLKGMKDDDYDDQLC	50.1		103	7.3	

More lines, now with the values ahead:

potency as concentration of isoproterenol for half of the total recruitment of the arrestin to β2AR [1] [nM]	Potency (pEC50 of isoproterenol for recruitment of the arrestin to β2AR) [2] [pEC50]	Efficacy (Emax) in %, normalized to WT [3] [%]	Potency (pEC50 of isoproterenol for recruitment of the arrestin to β2AR) [4] [pEC50]	increase of efficacy in arrestin recruitment compared to wild-type arrestin-3 [5] [%]	Molecule
		89.2	7.2		GFP-arrestin-3 triple mutant D (SEQ ID NO: 5): T299A + I386A + R393A (protein) MGEKPGTRVFKKSSPNCKLTVYLGKRDFVDHLDKVDPVDGVVLVDPDYLKDRKVFVTLTCAFRYGREDLDVLGLSFRKDLFIATYQAFPPVPNPPRPPTRLQDRLLRKLGQHAHPFFFTIPQNLPCSVTLQPGPEDTGKACGVDFEIRAFCAKSLEEKSHKRNSVRLVIRKVQFAPEKPGPQPSAETTRHFLMSDRSLHLEASLDKELYYHGEPLNVNVHVTNNSTKTVKKIKVSVRQYADICLFSTAQYKCPVAQLEQDDQVSPSSTFCKVYTITPLLSDNREKRGLALDGKLKHEDANLASSTIVKEGANKEVLGILVSYRVKVKLVVSRGGDVSVELPFVLMHPKPHDHIPLPRPQSAAPETDVPVDTNLIEFDTNYATDDDAVFEDFAALRLKGMKDDDYDDQLC
		109	7.2		GFP-arrestin-3 triple mutant C (SEQ ID NO: 4): T299A + I386A + D298A (protein) MGEKPGTRVFKKSSPNCKLTVYLGKRDFVDHLDKVDPVDGVVLVDPDYLKDRKVFVTLTCAFRYGREDLDVLGLSFRKDLFIATYQAFPPVPNPPRPPTRLQDRLLRKLGQHAHPFFFTIPQNLPCSVTLQPGPEDTGKACGVDFEIRAFCAKSLEEKSHKRNSVRLVIRKVQFAPEKPGPQPSAETTRHFLMSDRSLHLEASLDKELYYHGEPLNVNVHVTNNSTKTVKKIKVSVRQYADICLFSTAQYKCPVAQLEQDDQVSPSSTFCKVYTITPLLSDNREKRGLALDGKLKHEAANLASSTIVKEGANKEVLGILVSYRVKVKLVVSRGGDVSVELPFVLMHPKPHDHIPLPRPQSAAPETDVPVDTNLIEFDTNYATDDDAVFEDFARLRLKGMKDDDYDDQLC
